{"source": "paper PMC8204385", "about": "(Biophysical Journal, 2021)", "biological_target": "T1, human SHP-1 (Homo sapiens, UniProt P29350)", "T1 construct": "6xHis (N); made in house; host or cells: Escherichia coli BL21-CodonPlus (DE3)-RIPL", "T1 sequence (P29350 whole entry)": "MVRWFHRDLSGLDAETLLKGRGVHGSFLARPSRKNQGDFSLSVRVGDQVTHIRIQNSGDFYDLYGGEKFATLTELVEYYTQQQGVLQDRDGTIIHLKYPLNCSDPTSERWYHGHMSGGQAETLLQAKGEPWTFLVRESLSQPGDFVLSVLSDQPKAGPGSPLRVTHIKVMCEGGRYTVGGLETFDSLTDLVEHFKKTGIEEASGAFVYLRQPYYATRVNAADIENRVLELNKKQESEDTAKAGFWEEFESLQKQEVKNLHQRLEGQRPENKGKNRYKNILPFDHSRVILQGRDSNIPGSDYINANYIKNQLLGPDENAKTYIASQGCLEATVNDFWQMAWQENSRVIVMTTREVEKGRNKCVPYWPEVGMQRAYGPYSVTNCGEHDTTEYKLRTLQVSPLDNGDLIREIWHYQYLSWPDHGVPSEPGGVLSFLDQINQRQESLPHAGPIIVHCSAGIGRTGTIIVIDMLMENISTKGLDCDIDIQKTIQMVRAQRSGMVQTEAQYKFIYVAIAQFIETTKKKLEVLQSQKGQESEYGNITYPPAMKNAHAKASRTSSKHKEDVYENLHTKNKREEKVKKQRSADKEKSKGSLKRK", "assay": "SPR-based assay for tethered SHP-1 reactions on immobilised phosphopeptides, extended MPDPDE model fit", "type": "binding", "conditions": "37°C; vertical intercept of regression of L^2 vs number of PEG linkers, all data except PEG0", "note": "Several values for one entry are separate records, joined by “and”; a condition that tells them apart may be missing. Identical values can stand only once.", "data": [{"substance": "SHP-1: Human tyrosine phosphatase SHP-1 with an N-terminal 6× His tag produced in Escherichia coli", "values": [{"measurement": "molecular reach of SHP-1 (LSHP-1)", "value": "13.0 nm and 13.0 ± 0.8 nm"}]}]}
